Measurements from patent US20180291110A1 (Hoffmann-La Roche, published 2018).

target: T1, human transferrin receptor (recombinant, for surface plasmon resonance) (human, UniProt P02786 89-760); assay: SPR 25C
T1 construct: also called huTfR; human transferrin receptor-biotinylated
T1 sequence (P02786 89-760 limits assumed): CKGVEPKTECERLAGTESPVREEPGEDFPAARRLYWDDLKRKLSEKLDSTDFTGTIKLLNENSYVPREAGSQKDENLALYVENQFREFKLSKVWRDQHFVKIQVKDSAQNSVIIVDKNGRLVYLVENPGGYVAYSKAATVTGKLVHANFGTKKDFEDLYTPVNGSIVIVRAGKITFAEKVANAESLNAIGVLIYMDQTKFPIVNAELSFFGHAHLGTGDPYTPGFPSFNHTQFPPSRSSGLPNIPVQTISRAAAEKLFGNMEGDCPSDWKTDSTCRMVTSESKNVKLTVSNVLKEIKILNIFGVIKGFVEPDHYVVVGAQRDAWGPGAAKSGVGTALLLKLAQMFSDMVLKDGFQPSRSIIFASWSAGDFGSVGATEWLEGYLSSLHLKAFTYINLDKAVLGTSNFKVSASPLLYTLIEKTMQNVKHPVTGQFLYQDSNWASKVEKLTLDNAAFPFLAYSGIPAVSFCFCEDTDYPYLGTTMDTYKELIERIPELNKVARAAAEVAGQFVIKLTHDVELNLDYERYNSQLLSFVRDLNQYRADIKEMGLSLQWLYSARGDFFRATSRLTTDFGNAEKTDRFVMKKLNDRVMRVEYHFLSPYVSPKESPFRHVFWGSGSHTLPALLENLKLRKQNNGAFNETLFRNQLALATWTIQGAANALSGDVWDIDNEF

Row | Binder | koff [s⁻¹]
1 | 2/99 VH0(rb)/VL9-NYA (antibody, V domains shown) VH: QSMEESGGRLVTPGTPLTLTCTVSGFSLSSYAMSWVRQAPGKGLEWIGYIWSGGSTDYASWAKGRFTISKTSTTVDLKITSPTTEDTATYFCARRYGTSYPDYGDANGFDPWGPGTLVTVSS VL: AIQLTQSPSSLSASVGDRVTITCRASQSISSYLAWYQQKPGKAPKLLIYRASTLASGVPSRFSGSGSGTDFTLTISSLQPEDFATYYCQQNYASSNVDNTFGGGTKVEI | 0.00141
2 | 2/99 VH1/VL10 (antibody, V domains shown) VH: VQLVETGGGLIQPGGSLRLSCAASGFSLSSYAMSWVRQAPGKGLEWVGYIWSGGSTDYADSVKGRFTISRDNSKNTLYLQMNSLRAEDTAVYYCARRYGTSYPDYGDANGFDPWGQGTLVTVSS VL: DIQMTQSPSSLSASVGDRVTITCRASQSISSYLSWYQQKPGKAPKLLIYRASTLASGVPSRFSGSRSGTDFTLTISSLQPEDFATYYCQQSYSSSNVDNTFGGGTKVEIK | 0.00677
3 | 2/99 VH5/VL10 (antibody, V domains shown) VH: QSMEETGGGLIQPGGSLRLSCAASGFSLSSYAMSWVRQAPGKGLEWVGYIWSGGSTDYADSVKGRFTISRDNSKNTLYLQMNSLRAEDTAVYYCARRYGTSYPDYGDANGFDPWGPGTLVTVSS VL: DIQMTQSPSSLSASVGDRVTITCRASQSISSYLSWYQQKPGKAPKLLIYRASTLASGVPSRFSGSRSGTDFTLTISSLQPEDFATYYCQQSYSSSNVDNTFGGGTKVEIK | 0.00653
4 | 2/99 VH6/VL10 (antibody, V domains shown) VH: QQLVETGGGLIQPGGSLRLSCAASGFSLSSYAMSWVRQAPGKGLEWIGYIWSGGSTDYADSVKGRFTISRDNSKNTLYLQMNSLRAEDTAVYYCARRYGTSYPDYGDANGFDPWGQGTLVTVSS VL: DIQMTQSPSSLSASVGDRVTITCRASQSISSYLSWYQQKPGKAPKLLIYRASTLASGVPSRFSGSRSGTDFTLTISSLQPEDFATYYCQQSYSSSNVDNTFGGGTKVEIK | 0.00455
5 | 2/99 VH8/VL10 (antibody, V domains shown) VH: QQLVETGGGLIQPGGSLRLSCAASGFSLSSYAMSWVRQAPGKGLEWIGYIWSGGSTDYASWAKGRFTISKTSTTLYLQMNSLRAEDTAVYYCARRYGTSYPDYGDANGFDPWGQGTLVTVSS VL: DIQMTQSPSSLSASVGDRVTITCRASQSISSYLSWYQQKPGKAPKLLIYRASTLASGVPSRFSGSRSGTDFTLTISSLQPEDFATYYCQQSYSSSNVDNTFGGGTKVEIK | 0.00173
6 | 2/99 VH1/VL12 (antibody, V domains shown) VH: VQLVETGGGLIQPGGSLRLSCAASGFSLSSYAMSWVRQAPGKGLEWVGYIWSGGSTDYADSVKGRFTISRDNSKNTLYLQMNSLRAEDTAVYYCARRYGTSYPDYGDANGFDPWGQGTLVTVSS VL: DIQMTQSPSSLSASVGDRVTITCRASQSISSYLAWYQQKPGKAPKLLIYRASTLASGVPSRFSGSRSGTDFTLTISSLQPEDFATYYCQQHYSSSNVDNTFGGGTKVEIK | 0.00705
7 | 2/99 VH11/VL10 (antibody, V domains shown) VH: QQLLESGGGLVQPGGSLRLSCAASGFSLSSYAMSWVRQAPGKGLEWVGYIWSGGSTDYADSVKGRFTISRDNSKNTLYLQMNSLRAEDTAVYYCARRYGTSYPDYGDANGFDPWGQGTLVTVSS VL: DIQMTQSPSSLSASVGDRVTITCRASQSISSYLSWYQQKPGKAPKLLIYRASTLASGVPSRFSGSRSGTDFTLTISSLQPEDFATYYCQQSYSSSNVDNTFGGGTKVEIK | 0.00716
8 | 2/99 VH12/VL10 (antibody, V domains shown) VH: QVQLQESGPGLVKPSETLSLTCTVSGFSLSSYAMSWIRQPPGKGLEWIGYIWSGGSTDYNPSLKSRVTISVDTSKNQFSLKLSSVTAADTAVYYCARRYGTSYPDYGDANGFDPWGQGTLVTVSS VL: DIQMTQSPSSLSASVGDRVTITCRASQSISSYLSWYQQKPGKAPKLLIYRASTLASGVPSRFSGSRSGTDFTLTISSLQPEDFATYYCQQSYSSSNVDNTFGGGTKVEIK | 0.00779
9 | 2/99 VH7/VL10 (antibody, V domains shown) VH: QQLVETGGGLIQPGGSLRLSCAASGFSLSSYAMSWVRQAPGKGLEWIGYIWSGGSTDYASWAKGRFTISRDNSKNTLYLQMNSLRAEDTAVYYCARRYGTSYPDYGDANGFDPWGQGTLVTVSS VL: DIQMTQSPSSLSASVGDRVTITCRASQSISSYLSWYQQKPGKAPKLLIYRASTLASGVPSRFSGSRSGTDFTLTISSLQPEDFATYYCQQSYSSSNVDNTFGGGTKVEIK | 0.00264
10 | 2/99 VH15/VL10 (antibody, V domains shown) VH: QQLQESGPGLVKPSETLSLTCTVSGFSLSSYAMSWVRQPPGKGLEWIGYIWSGGSTDYNPSLKSRVTISVDTSKNQVSLKLSSVTAADTAVYYCARRYGTSYPDYGDANGFDPWGQGTLVTVSS VL: DIQMTQSPSSLSASVGDRVTITCRASQSISSYLSWYQQKPGKAPKLLIYRASTLASGVPSRFSGSRSGTDFTLTISSLQPEDFATYYCQQSYSSSNVDNTFGGGTKVEIK | 0.00399
11 | 2/99 VH13/VL10 (antibody, V domains shown) VH: QVQLQESGPGLVKPSETLSLTCTVSGFSLSSYAMSWIRQPPGKGLEWIGYIWSGGSTDYNPSLKSRVTISVDTSKNQVSLKLSSVTAADTAVYYCARRYGTSYPDYGDANGFDPWGQGTLVTVSS VL: DIQMTQSPSSLSASVGDRVTITCRASQSISSYLSWYQQKPGKAPKLLIYRASTLASGVPSRFSGSRSGTDFTLTISSLQPEDFATYYCQQSYSSSNVDNTFGGGTKVEIK | 0.00589
12 | 2/99 VH2/VL12 (antibody, V domains shown) VH: EVQLVETGGGLIQPGGSLRLSCAASGFSLSSYAMSWVRQAPGKGLEWVGYIWSGGSTDYADSVKGRFTISRDNSKNTLYLQMNSLRAEDTAVYYCARRYGTSYPDYGDANGFDPWGQGTLVTVSS VL: DIQMTQSPSSLSASVGDRVTITCRASQSISSYLAWYQQKPGKAPKLLIYRASTLASGVPSRFSGSRSGTDFTLTISSLQPEDFATYYCQQHYSSSNVDNTFGGGTKVEIK | 0.00814
13 | 2/99 VH9/VL10 (antibody, V domains shown) VH: QQLLESGGGLVQPGGSLRLSCAASGFTFSSYAMSWVRQAPGKGLEWVGYIWSGGSTDYADSVKGRFTISRDNSKNTLYLQMNSLRAEDTAVYYCAKRYGTSYPDYGDANGFDPWGQGTLVTVSS VL: DIQMTQSPSSLSASVGDRVTITCRASQSISSYLSWYQQKPGKAPKLLIYRASTLASGVPSRFSGSRSGTDFTLTISSLQPEDFATYYCQQSYSSSNVDNTFGGGTKVEIK | 0.00719
14 | 2/99 VH16/VL10 (antibody, V domains shown) VH: QQLQESGPGLVKPSETLSLTCTVSGFSLSSYAMSWVRQPPGKGLEWIGYIWSGGSTDYNPSLKSRVTISVDTSKNQVSLKLSSVTAADTAVYYCARRYGTSYPDYGDANGFDPWGPGTLVTVSS VL: DIQMTQSPSSLSASVGDRVTITCRASQSISSYLSWYQQKPGKAPKLLIYRASTLASGVPSRFSGSRSGTDFTLTISSLQPEDFATYYCQQSYSSSNVDNTFGGGTKVEIK | 0.00424
15 | 2/99 VH2/VL10 (antibody, V domains shown) VH: EVQLVETGGGLIQPGGSLRLSCAASGFSLSSYAMSWVRQAPGKGLEWVGYIWSGGSTDYADSVKGRFTISRDNSKNTLYLQMNSLRAEDTAVYYCARRYGTSYPDYGDANGFDPWGQGTLVTVSS VL: DIQMTQSPSSLSASVGDRVTITCRASQSISSYLSWYQQKPGKAPKLLIYRASTLASGVPSRFSGSRSGTDFTLTISSLQPEDFATYYCQQSYSSSNVDNTFGGGTKVEIK | 0.00649

Continued, values first:

Row | koff [s⁻¹] | Binder
16 | 0.0012 | 2/99 VH23-DANG/VL10 (antibody, V domains shown) VH: QSMQESGPGLVKPSQTLSLTCTVSGFSLSSYAMSWIRQHPGKGLEWIGYIWSGGSTDYASWAKSRVTISKTSTTVSLKLSSVTAADTAVYYCARRYGTSYPDYGDANGFDPWGQGTLVTVSS VL: DIQMTQSPSSLSASVGDRVTITCRASQSISSYLSWYQQKPGKAPKLLIYRASTLASGVPSRFSGSRSGTDFTLTISSLQPEDFATYYCQQSYSSSNVDNTFGGGTKVEIK
17 | 0.001 | 2/99 VH19/VL10 (antibody, V domains shown) VH: QSMQESGPGLVKPSQTLSLTCTVSGFSLSSYAMSWIRQHPGKGLEWIGYIWSGGSTDYAPSLKSRVTISVDTSKNQFSLKLSSVTAADTAVYYCARRYGTSYPDYGDANGFDPWGQGTLVTVSS VL: DIQMTQSPSSLSASVGDRVTITCRASQSISSYLSWYQQKPGKAPKLLIYRASTLASGVPSRFSGSRSGTDFTLTISSLQPEDFATYYCQQSYSSSNVDNTFGGGTKVEIK
18 | 0.00209 | 2/99 VH22/VL10 (antibody, V domains shown) VH: QSMQESGPGLVKPSQTLSLTCTVSGFSLSSYAMSWVRQHPGKGLEWIGYIWSGGSTDYASWAKSRVTISVDTSKNQVSLKLSSVTAADTAVYYCARRYGTSYPDYGDANGFDPWGQGTLVTVSS VL: DIQMTQSPSSLSASVGDRVTITCRASQSISSYLSWYQQKPGKAPKLLIYRASTLASGVPSRFSGSRSGTDFTLTISSLQPEDFATYYCQQSYSSSNVDNTFGGGTKVEIK
19 | 0.00211 | 2/99 VH21/VL10 (antibody, V domains shown) VH: QSMQESGPGLVKPSQTLSLTCTVSGFSLSSYAMSWIRQHPGKGLEWIGYIWSGGSTDYASWAKSRVTISVDTSKNQVSLKLSSVTAADTAVYYCARRYGTSYPDYGDANGFDPWGQGTLVTVSS VL: DIQMTQSPSSLSASVGDRVTITCRASQSISSYLSWYQQKPGKAPKLLIYRASTLASGVPSRFSGSRSGTDFTLTISSLQPEDFATYYCQQSYSSSNVDNTFGGGTKVEIK
20 | 0.00746 | 2/99 VH18/VL10 (antibody, V domains shown) VH: QVQLQESGPGLVKPSQTLSLTCTVSGFSLSSYAMSWIRQHPGKGLEWIGYIWSGGSTDYAPSLKSRVTISVDTSKNQFSLKLSSVTAADTAVYYCARRYGTSYPDYGDANGFDPWGQGTLVTVSS VL: DIQMTQSPSSLSASVGDRVTITCRASQSISSYLSWYQQKPGKAPKLLIYRASTLASGVPSRFSGSRSGTDFTLTISSLQPEDFATYYCQQSYSSSNVDNTFGGGTKVEIK
21 | 0.00705 | 2/99 VH20/VL10 (antibody, V domains shown) VH: QSMQESGPGLVKPSQTLSLTCTVSGFSLSSYAMSWIRQHPGKGLEWIGYIWSGGSTDYAPSLKSRVTISVDTSKNQVSLKLSSVTAADTAVYYCARRYGTSYPDYGDANGFDPWGQGTLVTVSS VL: DIQMTQSPSSLSASVGDRVTITCRASQSISSYLSWYQQKPGKAPKLLIYRASTLASGVPSRFSGSRSGTDFTLTISSLQPEDFATYYCQQSYSSSNVDNTFGGGTKVEIK
22 | 0.00188 | 2/99 VH17/VL10 (antibody, V domains shown) VH: QQLQESGPGLVKPSETLSLTCTVSGFSLSSYAMSWVRQPPGKGLEWIGYIWSGGSTDYNPSLKSRVTISKDTSKNQVSLKLSSVTAADTAVYYCARRYGTSYPDYGDANGFDPWGPGTLVTVSS VL: DIQMTQSPSSLSASVGDRVTITCRASQSISSYLSWYQQKPGKAPKLLIYRASTLASGVPSRFSGSRSGTDFTLTISSLQPEDFATYYCQQSYSSSNVDNTFGGGTKVEIK
